Assays:
Assay in all cases: microtubule co-sedimentation (taxol-mediated polymerisation, sucrose gradient centrifugation) with western blot quantification
[1] = biological target: REEP1 (UniProt Q8BGH4); settings: E18.5 forebrain, n = 3, mean ± s.e.m., parent: est. 0.28, read off a plot
[2] = biological target: dynein intermediate chain (DYNC1I1/2) (UniProt O88485); settings: E18.5 forebrain; n = 3; mean ± s.e.m.; P<0.01; parent: est. 0.55; read off a plot
[3] = biological target: VAPA (UniProt Q9WV55); settings: E18.5 forebrain, n = 3, mean ± s.e.m., parent: est. 0.30, read off a plot
[4] = biological target: KIF5C (UniProt P28738); settings: E18.5 forebrain, n = 3, mean ± s.e.m., parent: est. 0.61, read off a plot
[5] = biological target: VAPB (UniProt Q9QY76); settings: E18.5 forebrain, n = 3, mean ± s.e.m., parent: est. 0.27, read off a plot
[6] = biological target: EZRIN (UniProt P26040); settings: E18.5 forebrain, n = 3, mean ± s.e.m., parent: est. 0.10, read off a plot

## microtubules from the forebrain of E18.5 R402H/R402H littermate controls (no Cre; wild-type Tuba1a expressed) (from UniProt P68369;P99024)
[1]
  response (ratio MT pellet/lysate): 0.05
[2]
  response (ratio MT pellet/lysate): 0.29
[3]
  response (ratio MT pellet/lysate): 0.34
[4]
  response (ratio MT pellet/lysate): 0.6
[5]
  response (ratio MT pellet/lysate): 0.14
[6]
  response (ratio MT pellet/lysate): 0.12

From article PMC7660477
